Measured values published in US20170014486A1.

Molecular target: natriuretic polypeptide receptor A (Npra), mouse (mouse) (UniProt P18293)
Assay: cell-based or functional assay

Chain of UniProt P18293 (P18293 29-1057 limits assumed): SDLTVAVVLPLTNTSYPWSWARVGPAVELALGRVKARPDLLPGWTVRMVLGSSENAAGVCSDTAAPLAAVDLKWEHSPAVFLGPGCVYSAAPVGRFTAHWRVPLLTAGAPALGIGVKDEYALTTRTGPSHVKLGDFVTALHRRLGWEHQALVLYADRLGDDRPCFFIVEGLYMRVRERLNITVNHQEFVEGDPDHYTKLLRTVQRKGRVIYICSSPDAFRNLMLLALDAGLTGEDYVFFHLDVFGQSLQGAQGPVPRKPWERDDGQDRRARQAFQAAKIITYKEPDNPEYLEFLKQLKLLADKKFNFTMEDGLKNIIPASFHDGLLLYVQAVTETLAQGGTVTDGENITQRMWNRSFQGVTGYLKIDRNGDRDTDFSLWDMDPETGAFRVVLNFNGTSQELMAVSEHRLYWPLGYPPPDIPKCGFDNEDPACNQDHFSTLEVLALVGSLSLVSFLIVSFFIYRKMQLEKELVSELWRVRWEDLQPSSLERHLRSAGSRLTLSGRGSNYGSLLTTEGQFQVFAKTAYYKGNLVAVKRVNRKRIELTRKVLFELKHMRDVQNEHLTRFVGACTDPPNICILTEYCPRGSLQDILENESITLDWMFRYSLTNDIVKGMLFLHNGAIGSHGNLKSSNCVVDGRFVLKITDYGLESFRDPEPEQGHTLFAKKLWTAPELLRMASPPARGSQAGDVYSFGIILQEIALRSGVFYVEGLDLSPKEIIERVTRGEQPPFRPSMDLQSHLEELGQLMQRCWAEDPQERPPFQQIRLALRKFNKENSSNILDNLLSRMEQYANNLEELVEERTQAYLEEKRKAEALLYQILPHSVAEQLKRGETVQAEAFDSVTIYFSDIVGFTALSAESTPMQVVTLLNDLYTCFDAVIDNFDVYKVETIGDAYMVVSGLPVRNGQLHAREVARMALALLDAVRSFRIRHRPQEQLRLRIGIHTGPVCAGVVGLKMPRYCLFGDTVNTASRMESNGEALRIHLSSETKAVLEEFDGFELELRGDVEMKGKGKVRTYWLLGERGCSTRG

With Nppb-saporin conjugate the Npra-positive spinal cord neurons eliminated after intrathecal injection (ISH cell counts) was 70%.
